Legend:
human CD123 [1] = molecular target: T1, human CD123 (human, UniProt P26951 19-378); assay: cell-based or functional assay
human CD123 [2] = molecular target: T1, human CD123; assay: cell-based or functional assay; remark: listed apart in the source
human CD123 [3] = molecular target: T1, human CD123; assay: cell-based or functional assay; remark: listed apart in the source
human CD123 [4] = molecular target: T1, human CD123; assay: cell-based or functional assay; remark: listed apart in the source
[5] = molecular target: T2, human CD123 expressed on cells (human, UniProt P26951 19-378); assay: cell-based or functional assay
[6] = molecular target: T2, human CD123 expressed on cells; assay: cell-based or functional assay; remark: listed apart in the source
[7] = molecular target: cynomolgus TCR/CD3 expressed on cells (cynomolgus); assay: cell-based or functional assay
[8] = molecular target: cynomolgus TCR/CD3 expressed on cells (cynomolgus); assay: cell-based or functional assay; remark: listed apart in the source
[9] = molecular target: cynomolgus TCR/CD3 expressed on cells (cynomolgus); assay: cell-based or functional assay; remark: listed apart in the source
[10] = molecular target: T2, human CD123 expressed on cells; assay: cell-based or functional assay; remark: listed apart in the source
[11] = molecular target: T3, cynomolgus CD123 expressed on HEK Flp-In cells (cynomolgus); assay: cell-based or functional assay
T3 chain: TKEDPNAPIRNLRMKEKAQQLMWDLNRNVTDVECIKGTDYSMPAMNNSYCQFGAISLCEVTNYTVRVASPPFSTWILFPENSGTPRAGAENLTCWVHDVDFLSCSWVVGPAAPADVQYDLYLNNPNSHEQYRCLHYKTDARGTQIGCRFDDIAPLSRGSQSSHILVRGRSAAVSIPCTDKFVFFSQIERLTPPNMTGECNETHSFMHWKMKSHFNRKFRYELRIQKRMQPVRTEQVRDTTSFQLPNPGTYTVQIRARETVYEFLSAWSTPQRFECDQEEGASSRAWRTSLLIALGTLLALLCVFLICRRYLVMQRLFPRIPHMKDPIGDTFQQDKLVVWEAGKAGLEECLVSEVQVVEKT

[12] = molecular target: T2, human CD123 expressed on cells; assay: cell-based or functional assay; remark: listed apart in the source
[13] = molecular target: T2, human CD123 expressed on cells; assay: cell-based or functional assay; remark: listed apart in the source
[14] = molecular target: T2, human CD123 expressed on cells; assay: cell-based or functional assay; remark: listed apart in the source
[15] = molecular target: T2, human CD123 expressed on cells; assay: cell-based or functional assay; remark: listed apart in the source
[16] = molecular target: T2, human CD123 expressed on cells; assay: cell-based or functional assay; remark: listed apart in the source
[17] = molecular target: T2, human CD123 expressed on cells; assay: cell-based or functional assay; remark: listed apart in the source
[18] = molecular target: T4, cynomolgus TCR/CD3 expressed on cells (cynomolgus); assay: flow cytometry competition, HSC-F cells, competitor T017000099 (500 nM)
T4 construct: whole, on cells; Native complex with CD3 chains; the cell type is named under assay or readout; also called cyno TCR/CD3; CD3/TCR expressed on HSC-F

[19] = molecular target: T2, human CD123 expressed on cells; assay: flow cytometry competition, MOLM-13 cells, competitor A0110056A10-Alexa647 (0.4 nM)
[20] = molecular target: T2, human CD123 expressed on cells; assay: flow cytometry competition, CHO Flp-In huCD123 cells, competitor A0110056A10-Alexa647 (0.9 nM)
[21] = molecular target: T3, cynomolgus CD123 expressed on HEK …; assay: flow cytometry competition, HEK Flp-In cyCD123 cells, competitor A0110056A10-Alexa647 (0.9 nM)
[22] = molecular target: T2, human CD123 expressed on cells; assay: flow cytometry, KG1a cells
[23] = molecular target: T2, human CD123 expressed on cells; assay: flow cytometry, MOLM-13 cells
[24] = molecular target: T5, recombinant human CD123 protein (R&D Systems, 301-R3/CF) (human, UniProt P26951 19-305); assay: SPR (ProteOn XPR36), CD123 immobilized
T5 construct: Bought recombinant His-tagged extracellular domain of human CD123; also called recombinant CD123; in house biotinylated-CD123 recombinant protein; not shown: His tag of the bought protein
T5 sequence: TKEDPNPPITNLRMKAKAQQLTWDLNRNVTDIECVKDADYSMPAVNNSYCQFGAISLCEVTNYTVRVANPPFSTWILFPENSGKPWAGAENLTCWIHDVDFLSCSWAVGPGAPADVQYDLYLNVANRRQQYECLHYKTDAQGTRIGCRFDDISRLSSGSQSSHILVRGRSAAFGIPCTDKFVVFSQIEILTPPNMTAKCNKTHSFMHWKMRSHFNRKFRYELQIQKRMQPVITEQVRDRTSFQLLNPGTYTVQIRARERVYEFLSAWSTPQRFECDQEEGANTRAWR

[25] = molecular target: T2, human CD123 expressed on cells; assay: flow cytometry, CHO Flp-In huCD123 transfected cells
[26] = molecular target: T3, cynomolgus CD123 expressed on HEK …; assay: flow cytometry, HEK Flp-In cyCD123 transfected cells
[27] = molecular target: T2, human CD123 expressed on cells; assay: flow cytometry competition, MOLM-13 cells, competitor APC-labelled antibody 7G3
[28] = molecular target: T2, human CD123 expressed on cells; assay: flow cytometry competition, MOLM-13 cells, competitor A0110056A10-Alexa647 (0.7 nM)

T1 sequence (P26951 19-378 limits assumed): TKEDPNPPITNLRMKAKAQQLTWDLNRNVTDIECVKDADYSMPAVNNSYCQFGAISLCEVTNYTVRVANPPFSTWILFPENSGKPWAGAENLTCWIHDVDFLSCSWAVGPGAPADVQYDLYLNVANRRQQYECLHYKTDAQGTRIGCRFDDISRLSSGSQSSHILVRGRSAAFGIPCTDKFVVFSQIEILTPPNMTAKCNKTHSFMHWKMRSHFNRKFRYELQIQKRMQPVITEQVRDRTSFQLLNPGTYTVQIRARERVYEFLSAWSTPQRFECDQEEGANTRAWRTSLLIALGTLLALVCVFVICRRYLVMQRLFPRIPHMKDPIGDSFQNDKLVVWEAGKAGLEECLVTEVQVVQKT

B1: T017000139 (bispecific antibody)
chain: DVQLVESGGGLVQPGGSLRLSCVASGDVHKINFLGWYRQAPGKEREKVAHISIGDQTDYADSAKGRFTISRDESKNMVYLQMNSLKPEDTAVYFCRAFSRIYPYDYWGQGTLVTVSSGGGGSGGGGSGGGGSGGGGSGGGGSGGGGSGGGGSEVQLVESGGGLVQAGGPLRLSCAASGRTFSSYVMGWFRQAPGKEREFVAAIYWSNGKTQYTDSVKGRFTISGDNAKNTVYLQMNSLNPEDTAVYYCVADKDETGFRTLPIAYDYWGQGTLVTVSSGGGGSGGGGSGGGGSGGGGSGGGGSGGGGSGGGGSEVQLVESGGGLVQAGGSLRLSCAASGITSKINDMGWYRQTPGNYREWVASITATGTTNYRDSVKGRFTISRDNAKSTVYLQMNSLKPEDTTVYYCNTFPPISNFWGQGTLVTVSSA
Human CD123 [1]
  EC50 (M), redirected cynomolgus T cell mediated killing of MOLM-13 cells, flow cytometry, E:T 10:1: 2.9e-11 M
  EC50 (M), redirected human T cell mediated killing of MOLM-13 cells, flow cytometry, E:T 10:1: 2e-11 M
Human CD123 [2]
  % lysis, redirected cynomolgus T cell mediated killing of KG1a cells, flow cytometry, E:T 10:1: 34%
  % lysis, redirected human T cell mediated killing of KG1a cells, flow cytometry, E:T 10:1: 67%
  EC50 (M), redirected cynomolgus T cell mediated killing of KG1a cells, flow cytometry, E:T 10:1: 1.7e-11 M
  EC50 (M), redirected human T cell mediated killing of KG1a cells, flow cytometry, E:T 10:1: 8.1e-11 M
Human CD123 [3]
  EC50 (M), human IFN-γ secretion during redirected human T cell mediated killing of CD123 positive MOLM-13 cells (ELISA): 3.4e-10 M
Human CD123 [4]
  EC50 (M), human IL-6 secretion during redirected human T cell mediated killing of CD123 positive MOLM-13 cells (ELISA): 2.3e-11 M

B2: T017000139 (bispecific antibody)
chain: DVQLVESGGGLVQPGGSLRLSCVASGDVHKINFLGWYRQAPGKEREKVAHISIGDQTDYADSAKGRFTISRDESKNMVYLQMNSLKPEDTAVYFCRAFSRIYPYDYWGQGTLVTVSSGGGGSGGGGSGGGGSGGGGSGGGGSGGGGSGGGGSEVQLVESGGGLVQAGGPLRLSCAASGRTFSSYVMGWFRQAPGKEREFVAAIYWSNGKTQYTDSVKGRFTISGDNAKNTVYLQMNSLNPEDTAVYYCVADKDETGFRTLPIAYDYWGQGTLVTVSSGGGGSGGGGSGGGGSGGGGSGGGGSGGGGSGGGGSEVQLVESGGGLVQAGGSLRLSCAASGITSKINDMGWYRQTPGNYREWVASITATGTTNYRDSVKGRFTISRDNAKSTVYLQMNSLKPEDTTVYYCNTFPPISNFWGQGTLVTVSSA
notes: Multispecific Nanobody polypeptide expressed in Pichia; also called T013700139
[5]
  % lysis, redirected human T cell mediated killing of MOLM-13 cells, flow cytometry, E:T 10:1: 29%
  EC50 (M), redirected human T cell mediated killing of MOLM-13 cells, flow cytometry, E:T 10:1: 2e-11 M
[6]
  % lysis, redirected human T cell mediated killing of KG1a cells, flow cytometry, E:T 10:1: 27%
  EC50 (M), redirected human T cell mediated killing of KG1a cells, flow cytometry, E:T 10:1: 1.1e-10 M
[7]
  % lysis, redirected cyno T cell mediated killing of MOLM-13 cells, flow cytometry, E:T 10:1: 55%
  EC50 (M), redirected cyno T cell mediated killing of MOLM-13 cells, flow cytometry, E:T 10:1: 1.1e-11 M
[8]
  % lysis, redirected cyno T cell mediated killing of KG1a cells, flow cytometry: 42%
  EC50 (M), redirected cyno T cell mediated killing of KG1a cells, flow cytometry: 2.6e-11 M
[9]
  EC50 (M) of CD25 upregulation on cynomolgus T cells during redirected killing of MOLM-13 cells, 72 h: 6e-11 M
[10]
  IC50 (M), redirected human T cell mediated killing of human CD123 transfected CHO Flp-In cells, xCELLigence, E:T 15:1, 50 h: 2.4e-10 M
[11]
  IC50 (M), redirected cynomolgus T cell mediated killing of cynomolgus CD123 transfected HEK Flp-In cells, xCELLigence, E:T 15:1, 80 h: 1.1e-11 M
[12]
  EC50 (M), IFN-γ secretion by cynomolgus T cells during killing of CD123 transfected adherent target cells: 2.3e-09 M
  EC50 (M), IFN-γ secretion by human T cells during killing of CD123 transfected adherent target cells: 1e-09 M
[13]
  EC50 (M), human IL-6 secretion during human T cell mediated killing of CD123 transfected adherent target cells: 4.8e-10 M
[14]
  EC50 (M), redirected cynomolgus T cell mediated killing of CD123 positive KG1a cells, flow cytometry, E:T 10:1: 1.7e-11 M
  EC50 (M), redirected human T cell mediated killing of CD123 positive KG1a cells, flow cytometry, E:T 10:1: 8.1e-11 M
[15]
  EC50 (M), redirected cynomolgus T cell mediated killing of CD123 positive MOLM-13 cells, flow cytometry, Experiment 1: 6e-11 M
  EC50 (M), redirected cynomolgus T cell mediated killing of CD123 positive MOLM-13 cells, flow cytometry, Experiment 2: 3.1e-11 M
  EC50 (M), redirected human T cell mediated killing of CD123 positive MOLM-13 cells, flow cytometry, Experiment 2: 3e-11 M
[16]
  EC50 (M), human IFN-γ secretion during human T cell mediated killing of KG1a cells: 3.2e-11 M
  EC50 (M), human IFN-γ secretion during human T cell mediated killing of MOLM-13 cells: 3.4e-10 M
[17]
  EC50 (M), human IL-6 secretion during human T cell mediated killing of MOLM-13 cells: 2.3e-11 M
[18]
  IC50: 640 nM
[19]
  IC50: 3.7 nM
[20]
  IC50: 3.3 nM
[21]
  IC50: 11 nM

B3: A0110055F03 (VHH)
VHH: EVQLVESGGGLVQAGGPLRLSCAASGRTFSSYVMGWFRQAPGKEREFVAAIYWSNGKTQYTDSVKGRFTISGDNAKNTVYLQMNSLNPEDTAVYYCVADKDETGFRTLPIAYDYWGQGTQVTVSS
notes: Monovalent anti-CD123 Nanobody; also called A0110PMP055F03; A011005F03; not shown: C-terminal triple Flag, His6 tag
[22]
  EC50: > 100 nM
[23]
  EC50: > 100 nM
[24]
  Kd: 160 nM
  koff: 0.0039 s⁻¹
  kon: 25000 M⁻¹ s⁻¹
[25]
  EC50: 5.94 nM
[26]
  EC50: 2.53 nM
[27]
  IC50: 480 nM
[28]
  IC50: > 100 nM

Reference: patent US20240199740A1 (Ablynx, published 2024)
